The target in assay [1] is SARS-CoV-2 receptor-binding domain (WT RBD; S protein residues 319-539) (SARS-CoV-2) (UniProt P0DTC2). Nature of the assay: BLI (Octet Red), IgG on protein A biosensor, WT RBD in solution, 1:1 fit.
Assay [2] deals with SARS-COV-2 RBD (SARS-COV-2) (UniProt P0DTC2). Nature of the assay: ELISA, RBD coated.

For C144 (antibody), in assay [1], the equilibrium dissociation constant (Kd) came to 714 nM. In assay [2], this substance returned a concentration giving a half-maximal response (EC50) of 1.83 ng/mL.

The record behind these values is patent US20240218057A1.
